# Results as given in patent US12545899B2, “Luciferase enzymes for use with thermostable luciferins in bioluminescent assays” (Promega Corporation, priority 2018, dated 2026).
# Residue numbers refer to the chain shown, from its start. In names and notes the source's numbering stands.
# B1: C2260B6: SEQ ID NO: 43; H244W+T344A+I396K+S193A+N228D+L305F+S306P+I109V+Y108F+V261A+N427D+F431V (protein)
# chain: MADKNILYGPEPFYPLEDGTAGEQMFDALSRYAAIPGCIALTNAHTKENVLYEEFLKLSCRLAESFKKYGLKQNDTIAVCSENSLQFFLPVIASLYLGIIVAPVNDKFVERELIHSLGIVKPRIVFCSKNTFQKVLNVKSKLKSIETIIILDLNEDLGGYQCLNNFISQNSDSNLDVKKFKPYSFNRDDQVAAIMFSSGTTGLPKGVMLTHKNIVARFSIAKDPTFGDAINPTSAILTVIPFHWGFGMMTTLGYFTCGFRAVLMHTFEEKLFLQSLQDYKVESTLLVPTLMAFLAKSALVEKYDFPHLKEIASGGAPLSKEIGEMVKKRFKLNFVRQGYGLTEATSAVLITPKGDAKPGSTGKIVPLHAVKVVDPTTGKILGPNEPGELYFKGPMKMKGYYNNEEATKAIIDNDGWLRSGDIAYYDDDGHVYIVDRLKSLIKYKGYQVAPAEIEGILLQHPYIVDAGVTGIPDEAAGELPAAGVVVQTGKYLNEQIVQDYVASQVSTAKWLRGGVKFLDEIPKGSTGKIDRKVLRQMLEKHTNGHHHHHHHH
# B2: C2261D9: SEQ ID NO: 41; H244W+T344A+I396K+S193A+N228D+L305F+S306P+I109V+C38R+Y108F+T376I (protein)
# chain: B1 chain with C38R, A261V, T376I, D427N, V431F
# B3: C2158A3: SEQ ID NO: 45; H244W+T344A+I396K+S193A+N228D+L305F+S306P+I109V+Q487R (protein)
# chain: B1 chain with F108Y, A261V, D427N, V431F, Q487R
# B4: C2261D1: SEQ ID NO: 52; H244W+T344A+I396K+S193A+N228D+L305F+S306P+I109V+K121Q+V261A+V287I (protein)
# chain: B1 chain with F108Y, K121Q, V287I, D427N, V431F
# B5: C2240E2: SEQ ID NO: 40; H244W+T344A+I396K+S193A+N228D+L305F+S306P+I109V+I230F+V335G+I410M (protein)
# chain: B1 chain with F108Y, I230F, A261V, V335G, I410M, D427N, V431F
# B6: MK0141: SEQ ID NO: 108; H244W+S193A+N228D+L305F+S306P+I109V+C38R+F55I+Y108F+A316W+Y339M+T342S+V348I+T284A (protein)
# chain: MADKNILYGPEPFYPLEDGTAGEQMFDALSRYAAIPGRIALTNAHTKENVLYEEILKLSCRLAESFKKYGLKQNDTIAVCSENSLQFFLPVIASLYLGIIVAPVNDKFVERELIHSLGIVKPRIVFCSKNTFQKVLNVKSKLKSIETIIILDLNEDLGGYQCLNNFISQNSDSNLDVKKFKPYSFNRDDQVAAIMFSSGTTGLPKGVMLTHKNIVARFSIAKDPTFGDAINPTSAILTVIPFHWGFGMMTTLGYFTCGFRVVLMHTFEEKLFLQSLQDYKVESALLVPTLMAFLAKSALVEKYDFPHLKEIASGGWPLSKEIGEMVKKRFKLNFVRQGMGLSETTSAILITPKGDAKPGSTGKIVPLHAVKVVDPTTGKILGPNEPGELYFKGPMIMKGYYNNEEATKAIIDNDGWLRSGDIAYYDNDGHFYIVDRLKSLIKYKGYQVAPAEIEGILLQHPYIVDAGVTGIPDEAAGELPAAGVVVQTGKYLNEQIVQDYVASQVSTAKWLRGGVKFLDEIPKGSTGKIDRKVLRQMLEKHTNGHHHHHHHH
# B7: MK0146: SEQ ID NO: 112; H244W+S193A+N228D+L305F+S306P+I109V+C38R+F55I+Y108F+A316W+Y339M+T342S+V348I+L437R (protein)
# chain: B6 chain with A284T, L437R
# B8: MK0142: SEQ ID NO: 109; H244W+S193A+N228D+L305F+S306P+I109V+C38R+F55I+Y108F+A316W+Y339M+T342S+V348I+T289R (protein)
# chain: B6 chain with A284T, T289R
# B9: MK0144: SEQ ID NO: 110; H244W+S193A+N228D+L305F+S306P+I109V+C38R+F55I+Y108F+A316W+Y339M+T342S+V348I+K353R (protein)
# chain: B6 chain with A284T, K353R
# Experiment: Luminescence of ATG-3707 variants (second round epPCR) with CS0333
# Type: biochemical
# Settings: BrightGlo buffer, 25° C., 3 min
# Method: Reagent compositions included CS0333 diluted from 20 mM to 2 mM in reaction buffer with 2 mM ATP. […] Reactions were incubated at 25° C. for 3 min, and luminescence was read and then normalized to ATG-3707 activity tested in parallel.
row,Molecule,Luminescence (RLU) BrightGlo [RLU]
1,B1,2896240
2,B2,4380280
3,B3,3392960
4,B4,3436380
5,B5,3202900

# Same assay, conditions: BrightGlo buffer, normalized to ATG-3707
row,Molecule,Normalized Luminescence BrightGlo
1,B1,0.74
2,B2,1.13
3,B3,0.87
4,B4,0.88
5,B5,0.82

# Same assay, conditions: CellTiterGlo buffer, 25° C., 3 min
row,Molecule,Luminescence (RLU) CellTiterGlo [RLU]
1,B1,921045
2,B2,628712
3,B3,1027180
4,B4,841889
5,B5,976519

# Same assay, conditions: CellTiterGlo buffer, normalized to ATG-3707
row,Molecule,Normalized Luminescence CellTiterGlo
1,B1,1.43
2,B2,0.98
3,B3,1.59
4,B4,1.31
5,B5,1.51

# Same assay, conditions: Detection Reagent buffer, 25° C., 3 min
row,Molecule,Luminescence (RLU) Detection Reagent [RLU]
1,B1,6230440
2,B2,6890380
3,B3,6034440
4,B4,4820920
5,B5,6978270

# Same assay, conditions: Detection Reagent buffer, normalized to ATG-3707
row,Molecule,Normalized Luminescence Detection Reagent
1,B1,1.21
2,B2,1.34
3,B3,1.17
4,B4,0.93
5,B5,1.35

# Experiment: Kinetic analysis of ATG-3707 variants with CS0333
# Type: biochemical
# Settings: BrightGlo
# Method: Additionally, Table 5 (below) includes kinetic analysis of the ATG-3707 variants identified above. Reagent compositions included CS0333 serially diluted 10-fold from 1 mM to 10 fM in reaction buffer with 2 mM ATP. […] Reactions were incubated at 25° C. for 3 min, and luminescence was read and then normalized to ATG-3707 activity tested in parallel. […] Since C2157D2 was selected for improved brightness in CellTiterGlo® buffer over ATG-3707, it still had beneficial properties.
Molecule,Km [µM],Vmax (RLU)
B1,4.06,"4,439,047 RLU"
B2,7.46,"6,903,348 RLU"
B3,5.15,"4,009,543 RLU"
B4,5.92,"4,702,332 RLU"
B5,3.97,"5,559,638 RLU"

# Same assay, conditions: Detection Reagent
Molecule,Km [µM],Vmax (RLU)
B1,68.2,"4,995,834 RLU"
B2,117,"6,756,516 RLU"
B3,101,"3,944,016 RLU"
B4,79.8,"4,103,451 RLU"
B5,88.7,"5,831,602 RLU"

# Experiment: Brightness of additional luciferase enzyme variants with CS0333
# Type: biochemical
# Settings: Table 7A; 1 mM CS0333; Bright-Glo buffer
# Method in brief: (§1)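 Each variant at 0.005 mg/ml combined with 1 mM ATP plus 1 mM substrate in Bright-Glo or Detection Reagent buffer; luminescence recorded as relative brightness.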
row,Molecule,"Fold-improvement over ATG3707, CS0333 BG"
1,B1,0.70
2,B2,1.10
3,B3,0.92
4,B4,1.27
5,B5,1.26

# Same assay, conditions: Table 7A; 1 mM CS0333; Detection Reagent buffer
row,Molecule,"Fold-improvement over ATG3707, CS0333 DR"
1,B1,1.00
2,B2,1.43
3,B3,1.15
4,B4,1.24
5,B5,1.21

# Experiment: Brightness of additional luciferase enzyme variants with CS0280
# Type: biochemical
# Settings: Table 7A; 1 mM CS0280; Bright-Glo buffer
# Method in brief: as §1
row,Molecule,"Fold-improvement over ATG3707, CS0280 BG"
1,B1,0.82
2,B2,1.39
3,B3,1.30
4,B4,2.02
5,B5,1.24

# Same assay, conditions: Table 7A; 1 mM CS0280; Detection Reagent buffer
row,Molecule,"Fold-improvement over ATG3707, CS0280 DR"
1,B1,0.97
2,B2,1.89
3,B3,1.49
4,B4,2.41
5,B5,1.39

# Experiment: Differential scanning fluorimetry (DSF) analysis
# Type: physicochemical
# Design: key to DSF Tm: melting temperature in °C (heated 30-95 °C at 1 °C/min)
# Settings: Table 7A
# Method in brief: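 Thermal melt with 5× final Sypro Orange: ramp 1° C/min from 30 to 95° C, reading each 60 s, derivative of fluorescence plotted by temperature. Luciferase variants were in 20 mM HEPES pH 7.5, 200 mM NaCl, 1 mM EDTA; other enzymes in 50 mM HEPES pH 7.5, 100 mM NaCl, 2 mM EDTA.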
row,Molecule,DSF Tm
1,B1,55
2,B2,61
3,B3,61
4,B4,54
5,B5,49

# Same assay, conditions: Table 12
row,Molecule,DSF Tm (° C.) [°C]
1,B6,73
2,B7,72
3,B8,71
4,B9,73

# Experiment: Kinetic analysis of thermostable variants with 400 fM-4 mM CS0280 (Table 12)
# Type: biochemical
# Settings: BrightGlo Buffer, 4 mM ATP
# Method: Table 12 includes representative results of kinetic analysis of the thermostable variants with 400 fM-4 mM CS0280. This panel of enzyme variants have a combination of improved thermostability and brightness with CS0280 relative to their progenitor enzyme variants MK134 and MK137.
Molecule,Km [µM],Vmax (RLU)
B6,7.12,"1,701,019 RLU"
B7,4.21,"1,114,607 RLU"
B8,4.98,"1,409,786 RLU"
B9,10.5,"1,586,262 RLU"

# Same assay, conditions: Detection Reagent Buffer, 4 mM ATP
Molecule,Km [µM],Vmax (RLU)
B6,40.6,"89,238 RLU"
B7,33.3,"55,964 RLU"
B8,32.3,"70,257 RLU"
B9,35.4,"43,744 RLU"
